{
  "source": "paper PMC11289257",
  "about": "(2024)",
  "binders": {"B1": {"name": "porcine antibody G6 (class IV) (Fab, V domains shown)", "VH": "EVKLVESGGGLVQPGGSLTLSCVGSGYTFSSYPICWVRQAPGKGLEWLSCIDSSGSKMHLADSVLSRFTISKDNSQNTAYLQMNSLRTEDTARYYCARGRWCYGVICDMDLWGPGVEVVVSS", "VL": "IVLTQTPLSLSVSPGEPASISCRSSQSLEEYGKNWLSWYQQKPGQSPRLLIYQATNRASWVPERFSGSGSGTDFTLKISRVEAEDAGVYYCQQYKEFPWTFGQGTKLELK"}, "B2": {"name": "porcine antibody C9 (class III) (Fab, V domains shown)", "VH": "EVKLVESGGGLVQPGGSLRLSCVGSGFTFSSYEINWVRQAPGKGLEWLAVVSKIGDRTYYADSVRGRLTISRDNSQNTAYLQMNSLRTEDTARYYCVRAWCASTCLPGDIMDLWGPGVGVVVSS", "VL": "QTVIQEPAMSVSPGGTVTLTCAWSSGSVTTSNYPSWFQQTPGQPPRQLIYNTNSRPTGVPRRFSGKISGNKAALTITGAQAEDEADYFCGLYKRSANNIFGGGTHLTVL"}, "B3": {"name": "porcine antibody F11 (class II) (Fab, V domains shown)", "VH": "EEKLVESGGGLVKPGGSLKLSCVGSGSTFSSDAVSWVRQAPGKGLEWLAGIDGDGYGVSTYYADSVKGRFTISRDNSQKTAYLQMNSLRTDDTARYYCAECPMVLLAKCSMEFWGPGVEVVVSS", "VL": "QTVIQEPAMSVSLGGTVTLTCAFSSGSVTSSNYPGWFQQTPGQPPRLLIYQTNSRPTGVPSRFSGAISGNRAALTITGAQAEDEADYFCGLWKSGTDLPFGGGTHLTVL"}, "B4": {"name": "porcine antibody F5 (class II) (antibody, V domains shown)", "VH": "B3 VH", "VL": "QTVIQEPAMSVSPGGTVTLTCAFSSGSVTTRNYPSWFQQTPGQPPRLLIGRTNNRPTGVPSRFSGVISGNKAALVITGAQANDEATYFCSLYSPDTIIFGSGTHLTVL"}, "B5": {"name": "porcine antibody B1 (class I) (Fab, V domains shown)", "VH": "EVKLVESGGGLVQPGGSLKLSCVGSGSTFSSDAVSWVRQAPGKGLEWLAGIDGDGGGGSTYYADSVKGRFTISRDNSQKTAYLQMNSLRTDDTARYYCAECPMVLLAKCSMEFWGPGVEVVVS", "VL": "DIVLTQTPRSLSVSPGEPASISCRSSQSLEEYGKNWLSWYQQKPGQSPRLLIYQATNRASWVPERFSGSGSGTDFTLKISRVEAEDVGVYYCFQDLQPPNGFGAGTKLELK"}, "B6": {"name": "porcine antibody H3 (class III) (Fab, V domains shown)", "VH": "QEKLVESGGGLVQPGGSLILSCVGSGFTFITYEINWVRQAPGKGLEWLAVVSKIGDRTYYAHSVRGRLTISRDNSQNTAYLQMNSLRTEDTARYYCVRAWCATTCLPGDIMDLWGPGVGVIV", "VL": "TVIHEPAMSLSPGGTDTLTCAFSSGSITNNNYPSWFQQTPRQPPRLLIYNTNNRPTGVPSRFSGAISGNKAALTITGAQANDEADYFCTLYISIADVIFGGGTHLTVL"}},
  "data": [
    {"target": "T1, African swine fever virus major capsid protein p72 (p72 capsomer, trimer) (African swine fever virus, UniProt P22776)", "assay": "SPR", "units": {"koff": "s⁻¹"}, "values": [
      {"binder": "B1", "koff": 0.00952},
      {"binder": "B2", "koff": 0.00893},
      {"binder": "B3", "koff": 0.000267},
      {"binder": "B4", "koff": 0.0134},
      {"binder": "B5", "koff": "7.08e-05"},
      {"binder": "B6", "koff": 0.00494}
    ]},
    {"target": "T1, African swine fever virus major capsid …", "assay": "SPR", "remark": "another data set of the same source", "units": {"Kd": "µM"}, "values": [
      {"binder": "B1", "Kd": 1.92},
      {"binder": "B2", "Kd": 1.49},
      {"binder": "B3", "Kd": 0.00913},
      {"binder": "B4", "Kd": 3.16},
      {"binder": "B5", "Kd": 0.00312},
      {"binder": "B6", "Kd": 0.998}
    ]}
  ]
}
